Here are results for nine molecules from US20240344138A1, “TARGETED THERAPIES IN CANCER” (Feng Biosciences, Inc, priority 2021, published 2024).

The test system of assay [1] is advanced colorectal cancers metastatic to liver (mCRC). Particulars: 3L+ mCRC metastatic to liver; cited from earlier work.
The next assay has as its system mCRC. Particulars: phase II single arm study; cited from earlier work.
Assay [2] deals with stage III or IV of ovarian cancer. The note with it: ovarian cancer stage III or IV after initial surgery; bevacizumab added to carboplatin and paclitaxel versus without; cited from earlier work.
Assay [3] deals with platinum-resistant or platinum-sensitive recurrent triple negative breast cancer. Description: Clinical trial of PARP inhibitor, immune checkpoint inhibitor and navicixizumab, ORR by TME phenotype. Type of assay: in vivo, human. Here is the method: A clinical trial is run to determine whether the triple negative breast cancer (TNBC) tumor microenvironment phenotypes correlate to clinical responses when patients are treated with a PARP inhibitor, an immune checkpoint inhibitor, and Navicixizumab after recurrence on platinum-based chemotherapy. The analysis includes samples from two different cohorts (one consisting of platinum-sensitive patients and one consisting of platinum-resistant patients). 40 patients from each cohort are randomized to 2 different treatment arms (20 patients in each arm). Patients are randomized to receive either (i) a PARP inhibitor and an immune checkpoint inhibitor or (ii) a PARP inhibitor, an immune checkpoint inhibitor and Navicixizumab. RNA gene signatures are analyzed from tumor samples acquired before the treatments and TME phenotypes are determined. Patients are followed for clinical response.
TNBC patients are randomized to receiving a regimen of PARP inhibitor (olaparib, rucaparib, niraparib, etc.) plus an immune checkpoint inhibitor (anti-PD-(L)1—i.e., an inhibitor to PD-1 or PD-L1) therapy, or a regimen of PARP inhibitor/immune checkpoint inhibitor/Navicixizumab. The combination of PARP inhibitor/immune checkpoint inhibitor/Navicixizumab increases overall response rate in patients with TNBC compared to the regimen of PARP inhibitor/immune checkpoint inhibitor alone in both the platinum-sensitive and platinum-resistant cohorts as shown in TABLE 37. […] Eighty (80) total patients are enrolled, 20 in each of the treatment groups across the two cohorts with equal representation across the 4 stromal phenotypes (5 in each phenotype per treatment group). The correlation between each TME phenotype is tested against clinical outcome data. In immune active (IA), immune suppressed (IS), and angiogenic (A) patients the use of the regimen of PARPi/immune checkpoint inhibitor/Navicixizumab confers benefit in comparison to patients classified to immune desert (ID) TME phenotype classes as shown in the TABLE 38.

The subject of assay [4] is colorectal cancer in dMMR or MSI-H status patients. The assay can be described thus: Clinical trial of bavituximab and an anti-PD-1 checkpoint inhibitor in dMMR or MSI-H colorectal cancer, outcome by TME phenotype. It is filed as in vivo, human. How it is done:
A clinical trial is run to determine whether colorectal cancer TME phenotypes correlate to clinical responses when patients with dMMR or MSI-H status are treated with a combination of a checkpoint inhibitor and bavituximab. The analysis includes 40 colorectal cancer tumor samples.
An anti-PD-1 checkpoint inhibitor is known to increase PFS and OS in dMMR or MSI-H status patients with advanced colorectal cancer (CRC), compared to chemotherapy. CRC patients with dMMR or MSI-H have the option of anti-PD-(L)1 after advancement on appropriate front-line therapy. Patients are classified according to an ANN method such as the TME Panel-1 classifier. […] RNA gene signatures are analyzed from biopsy samples prior to treatment with anti-PD-1. The TME phenotypes are correlated with ORR and with 20-week PFS. […] 40 patients are enrolled, 10 in each of the 4 TME phenotypes. The correlation between each tumor TME phenotype is tested against clinical outcome data. In IA or IS patients the use of bavituximab and anti-PD-(L)1 confers gains in comparison to patients classified to angiogenic (A), and immune desert (ID) TME phenotypes as shown in TABLE 18.

For a further assay, the system named is melanoma. The assay can be described thus: Phase 2 trial of adjuvant bavituximab and radiation after neoadjuvant immune checkpoint inhibitor, outcome by TME phenotype. It is filed as in vivo, human. Here is the method:
A phase 2 clinical trial is run to determine whether melanoma tumor microenvironment phenotypes correlate to clinical responses when patients are treated with adjuvant Bavituximab and radiation following neoadjuvant immune checkpoint inhibitor treatment and surgical resection of stage 2b lymph nodes. The analysis includes samples from 20 patients. RNA gene signatures are analyzed from tumor samples acquired as surgical resections and TME phenotypes are determined. Patients are followed for ORR.
Melanoma patients receive a course of neoadjuvant immune checkpoint inhibitor (anti-PD-(L)1—i.e., an inhibitor to PD-1 or PD-L1) therapy and their stage 2b lymph nodes are resected. Radiation and Bavituximab are given as adjuvant therapy. The TME phenotypes from resected tumor samples are correlated to ORR. […] (20) patients are enrolled, with equal representation across the 4 stromal phenotypes (5 in each phenotype). The correlation between each TME phenotype is tested against clinical outcome data. In biomarker positive patients, represented by immune active (IA) and immune suppressed (IS) phenotypes, the use of the regimen of Bavituximab/radiation confers benefit in comparison to patients classified as biomarker negative, comprised of angiogenic (A) and immune desert (ID) TME phenotype classes, as shown in the TABLE 33.

With trifluoridine/tipiracil, in assay [1], the “median OS (mOS)” value is around 7 months and the “median PFS (mPFS)” value was around 2 months.

On to “ramucirumab plus FOLFIRI: anti-angiogenic ramucirumab plus the chemotherapeutic FOLFIRI”, for which, in the assay with mCRC, the ORR is given as 58%, the OS is 20.4 mos and the PFS was 11.5 months.

Take carboplatin and paclitaxel: the Progression-free survival in assay [2] is 13 months.

With `CNC(=O)c1cc(Oc2ccc(NC(=O)Nc3ccc(Cl)c(C(F)(F)F)c3)c(F)c2)ccn1` [regorafenib], in assay [1], the “median OS (mOS)” value is around 7 months and the “median PFS (mPFS)” value is around 2 months.

B1: PARPi/Immune Checkpoint Inhibitor/Navicixizumab (antibody, chains of the INN, looked up, V domains shown)
VH: QVQLVQSGAEVKKPGASVKISCKASGYSFTAYYIHWVKQAPGQGLEWIGYISNYNRATNYNQKFKGRVTFTTDTSTSTAYMELRSLRSDDTAVYYCARDYDYDVGMDYWGQGTLVTVSS
VL: DIVMTQSPDSLAVSLGERATISCRASESVDNYGISFMKWFQQKPGQPPKLLIYAASNQGSGVPDRFSGSGSGTDFTLTISSLQAEDVAVYYCQQSKEVPWTFGGGTKVEIK
VH2: QVQLVQSGAEVKKPGASVKVSCKASGYTFTNYWMHWVRQAPGQGLEWMGDINPSNGRTSYKEKFKRRVTLSVDKSSSTAYMELSSLRSEDTAVYFCTIHYDDKYYPLMDYWGQGTLVTVSS
VL2: DIVMTQSPDSLAVSLGERATISCRASESVDNYGISFMKWFQQKPGQPPKLLIYAASNQGSGVPDRFSGSGSGTDFTLTISSLQAEDVAVYYCQQSKEVPWTFGGGTKVEIK
modifications: with PARP inhibitor and checkpoint inhibitor
Regarding B1, the “Overall response rate (ORR)” value in assay [3] (Platinum-sensitive cohort, n = 20 per treatment group) came out at 80%.

B2: PARPi/immune checkpoint inhibitor/Navicixumab (antibody, chains of the INN, looked up, V domains shown)
VH: QVQLVQSGAEVKKPGASVKISCKASGYSFTAYYIHWVKQAPGQGLEWIGYISNYNRATNYNQKFKGRVTFTTDTSTSTAYMELRSLRSDDTAVYYCARDYDYDVGMDYWGQGTLVTVSS
VL: DIVMTQSPDSLAVSLGERATISCRASESVDNYGISFMKWFQQKPGQPPKLLIYAASNQGSGVPDRFSGSGSGTDFTLTISSLQAEDVAVYYCQQSKEVPWTFGGGTKVEIK
VH2: QVQLVQSGAEVKKPGASVKVSCKASGYTFTNYWMHWVRQAPGQGLEWMGDINPSNGRTSYKEKFKRRVTLSVDKSSSTAYMELSSLRSEDTAVYFCTIHYDDKYYPLMDYWGQGTLVTVSS
VL2: DIVMTQSPDSLAVSLGERATISCRASESVDNYGISFMKWFQQKPGQPPKLLIYAASNQGSGVPDRFSGSGSGTDFTLTISSLQAEDVAVYYCQQSKEVPWTFGGGTKVEIK
modifications: with PARP inhibitor and checkpoint inhibitor
On to B2, for which the “Overall response rate (ORR)” value in assay [3] (Platinum-resistant cohort, TME phenotype A (n = 5)) turned out to be 40; in assay [3] (Platinum-resistant cohort, TME phenotype IA (n = 5)), 60; in assay [3] (Platinum-resistant cohort, TME phenotype ID (n = 5)) it was 0; in assay [3] (Platinum-resistant cohort, TME phenotype IS (n = 5)), 80; in assay [3] (Platinum-sensitive cohort, TME phenotype A (n = 5)), 100; in assay [3] (Platinum-sensitive cohort, TME phenotype IA (n = 5)), 80. Besides, the “Overall response rate (ORR)” value in assay [3] (Platinum-sensitive cohort, TME phenotype ID (n = 5)) amounted to 60; in assay [3] (Platinum-sensitive cohort, TME phenotype IS (n = 5)), 80.

B3: PARPi/Immune Checkpoint Inhibitor/Navixicizumab (antibody, chains of the INN, looked up, V domains shown)
VH: QVQLVQSGAEVKKPGASVKISCKASGYSFTAYYIHWVKQAPGQGLEWIGYISNYNRATNYNQKFKGRVTFTTDTSTSTAYMELRSLRSDDTAVYYCARDYDYDVGMDYWGQGTLVTVSS
VL: DIVMTQSPDSLAVSLGERATISCRASESVDNYGISFMKWFQQKPGQPPKLLIYAASNQGSGVPDRFSGSGSGTDFTLTISSLQAEDVAVYYCQQSKEVPWTFGGGTKVEIK
VH2: QVQLVQSGAEVKKPGASVKVSCKASGYTFTNYWMHWVRQAPGQGLEWMGDINPSNGRTSYKEKFKRRVTLSVDKSSSTAYMELSSLRSEDTAVYFCTIHYDDKYYPLMDYWGQGTLVTVSS
VL2: DIVMTQSPDSLAVSLGERATISCRASESVDNYGISFMKWFQQKPGQPPKLLIYAASNQGSGVPDRFSGSGSGTDFTLTISSLQAEDVAVYYCQQSKEVPWTFGGGTKVEIK
modifications: with PARP inhibitor and checkpoint inhibitor
Turning to B3, the “Overall response rate (ORR)” value in assay [3] (Platinum-resistant cohort, n = 20 per treatment group) is on record as 45%.

B4: bavituximab and an anti-PD-1 checkpoint inhibitor: phosphotidylserine-targeting antibody bavituximab in combination with anti-PD-1 (antibody, chains of the INN, looked up, V domains shown)
VH: EVQLQQSGPELEKPGASVKLSCKASGYSFTGYNMNWVKQSHGKSLEWIGHIDPYYGDTSYNQKFRGKATLTVDKSSSTAYMQLKSLTSEDSAVYYCVKGGYYGHWYFDVWGAGTTVTVSS
VL: DIQMTQSPSSLSASLGERVSLTCRASQDIGSSLNWLQQGPDGTIKRLIYATSSLDSGVPKRFSGSRSGSDYSLTISSLESEDFVDYYCLQYVSSPPTFGAGTKLELK
modifications: plus anti-PD-1 checkpoint inhibitor
Regarding B4, the “ORR (%)” value in assay [4] (A (n = 10)) amounted to 0%; in assay [4] (IA (n = 10)), 90%; in assay [4] (ID (n = 10)), 0%; in assay [4] (IS (n = 10)), 90%. Also, the “PFS % at 20 weeks” value is reported as 0% in assay [4] (A (n = 10)), 100% in assay [4] (IA (n = 10)), 0% in assay [4] (ID (n = 10)) and 100% in assay [4] (IS (n = 10)).

B5: Bavituximab plus radiation (antibody, chains of the INN, looked up, V domains shown)
VH: EVQLQQSGPELEKPGASVKLSCKASGYSFTGYNMNWVKQSHGKSLEWIGHIDPYYGDTSYNQKFRGKATLTVDKSSSTAYMQLKSLTSEDSAVYYCVKGGYYGHWYFDVWGAGTTVTVSS
VL: DIQMTQSPSSLSASLGERVSLTCRASQDIGSSLNWLQQGPDGTIKRLIYATSSLDSGVPKRFSGSRSGSDYSLTISSLESEDFVDYYCLQYVSSPPTFGAGTKLELK
modifications: plus radiation
As for B5, the “Overall response rate (ORR)” value in the assay with melanoma (Biomarker Negative (n = 10)) is 60%; in the assay with melanoma (Biomarker Positive (n = 10)), 90%; in the assay on melanoma (TME phenotype A (n = 5)), 60%; in the assay on melanoma (TME phenotype IA (n = 5)) it was 80%; in the assay on melanoma (TME phenotype ID (n = 5)), 60%; with melanoma (TME phenotype IS (n = 5)), 100%.
